Assay results reported in paper PMC3572128.

Molecular target: caspase-8 (P10 and P18 subunits reconstituted in their active form)
Experiment: flow cytometry of giant unilamellar vesicles; CL-containing GUVs in PBS; caspase-8 290 nM bound to the vesicles, fluorescent Bid added at 10 to 100 nM; vesicle fluorescence recorded online

mean fluorescence of GUVs + caspase-8 + Bid (0 min): 84 a.u.
B1: full-length Bid (C15S, C28S), fluorescently labelled (natural protein)
chain: MDCEVNNGSSLRDESITNLLVFGFLQSSSDNSFRRELDALGHELPVLAPQWEGYDELQTDGNRSSHSRLGRIEADSESQEDIIRNIARHLAQVGDSMDRSIPPGLVNGLALQLRNTSRSEEDRNRDLATALEQLLQAYPRDMEKEKTMLVLALLLAKKVASHTPSLLRDVFHTTVNFINQNLRTYVRSLARNGMD
modifications: Bodipy488 or Alexa647 maleimide labelling (legends and results also say Alexa488)
